Drawing on PMC4803301, this text covers expression_or_secretion for 3 proteins.

Series [1] can be described thus: time course of secreted Rspo1, anti-myc blot. The conditions noted are these: glycan lost; control: wild type.
Series [2] is described as follows: anti-myc blot of conditioned medium and lysate, HT1080. To be noted: glycan lost; control: wild type.
Series [3] is described as follows: anti-myc blot of conditioned medium and lysate, HT1080-Rspo1-MH. To be noted: glycan lost; control: siCtrl.

B1: R-spondin1 (Rspo1): 2WA (protein)
parent chain: MRLGLCVVALVLSWTHLTISSRGIKGKRQRRISAEGSQACAKGCELCSEVNGCLKCSPKLFILLERNDIRQVGVCLPSCPPGYFDARNPDMNKCIKCKIEHCEACFSHNFCTKCKEGLYLHKGRCYPACPEGSSAANGTMECSSPAQCEMSEWSPWGPCSKKQQLCGFRRGSEERTRRVLHAPVGDHAACSDTKETRRCTVRRVPCPEGQKRRKGGQGRRENANRNLARKESKEAGAGSRRRKGQQQQQQQGTVGPLTSAGPA
As for B1, the expression_or_secretion entry in series [1] and in series [2] was “decreases” each time.

B2: R-spondin1 (Rspo1): siDPY19L3 (protein)
parent chain: MRLGLCVVALVLSWTHLTISSRGIKGKRQRRISAEGSQACAKGCELCSEVNGCLKCSPKLFILLERNDIRQVGVCLPSCPPGYFDARNPDMNKCIKCKIEHCEACFSHNFCTKCKEGLYLHKGRCYPACPEGSSAANGTMECSSPAQCEMSEWSPWGPCSKKQQLCGFRRGSEERTRRVLHAPVGDHAACSDTKETRRCTVRRVPCPEGQKRRKGGQGRRENANRNLARKESKEAGAGSRRRKGQQQQQQQGTVGPLTSAGPA
In the case of B2, the expression_or_secretion entry in series [3] is “decreases”.

B3: R-spondin1 (Rspo1): siDPY19L3#2 (protein)
parent chain: MRLGLCVVALVLSWTHLTISSRGIKGKRQRRISAEGSQACAKGCELCSEVNGCLKCSPKLFILLERNDIRQVGVCLPSCPPGYFDARNPDMNKCIKCKIEHCEACFSHNFCTKCKEGLYLHKGRCYPACPEGSSAANGTMECSSPAQCEMSEWSPWGPCSKKQQLCGFRRGSEERTRRVLHAPVGDHAACSDTKETRRCTVRRVPCPEGQKRRKGGQGRRENANRNLARKESKEAGAGSRRRKGQQQQQQQGTVGPLTSAGPA
On to B3, for which the expression_or_secretion entry in series [3] was “decreases”.
